# Measurements from IntAct's records for PubMed 31412244.
# B1: Autophagy-related protein 2 homolog A (Homo sapiens), Q2TAZ0 (parent)
# chain: MSRWLWPWSNCVKERVCRYLLHHYLGHFFQEHLSLDQLSLDLYKGSVALRDIHLEIWSVNEVLESMESPLELVEGFVGSIEVAVPWAALLTDHCTVRVSGLQLTLQPRRGPAPGAADSQSWASCMTTSLQLAQECLRDGLPEPSEPPQPLEGLEMFAQTIETVLRRIKVTFLDTVVRVEHSPGDGERGVAVEVRVQRLEYCDEAVRDPSQAPPVDVHQPPAFLHKLLQLAGVRLHYEELPAQEEPPEPPLQIGSCSGYMELMVKLKQNEAFPGPKLEVAGQLGSLHLLLTPRQLQQLQELLSAVSLTDHEGLADKLNKSRPLGAEDLWLIEQDLNQQLQAGAVAEPLSPDPLTNPLLNLDNTDLFFSMAGLTSSVASALSELSLSDVDLASSVRSDMASRRLSAQAHPAGKMAPNPLLDTMRPDSLLKMTLGGVTLTLLQTSAPSSGPPDLATHFFTEFDATKDGPFGSRDFHHLRPRFQRACPCSHVRLTGTAVQLSWELRTGSRGRRTTSMEVHFGQLEVLECLWPRGTSEPEYTEILTFPGTLGSQASARPCAHLRHTQILRRVPKSRPRRSVACHCHSELALDLANFQADVELGALDRLAALLRLATVPAEPPAGLLTEPLPAMEQQTVFRLSAPRATLRLRFPIADLRPEPDPWAGQAVRAEQLRLELSEPQFRSELSSGPGPPVPTHLELTCSDLHGIYEDGGKPPVPCLRVSKALDPKSTGRKYFLPQVVVTVNPQSSSTQWEVAPEKGEELELSVESPCELREPEPSPFSSKRTMYETEEMVIPGDPEEMRTFQSRTLALSRCSLEVILPSVHIFLPSKEVYESIYNRINNDLLMWEPADLLPTPDPAAQPSGFPGPSGFWHDSFKMCKSAFKLANCFDLTPDSDSDDEDAHFFSVGASGGPQAAAPEAPSLHLQSTFSTLVTVLKGRITALCETKDEGGKRLEAVHGELVLDMEHGTLFSVSQYCGQPGLGYFCLEAEKATLYHRAAVDDYPLPSHLDLPSFAPPAQLAPTIYPSEEGVTERGASGRKGQGRGPHMLSTAVRIHLDPHKNVKEFLVTLRLHKATLRHYMALPEQSWHSQLLEFLDVLDDPVLGYLPPTVITILHTHLFSCSVDYRPLYLPVRVLITAETFTLSSNIIMDTSTFLLRFILDDSALYLSDKCEVETLDLRRDYVCVLDVDLLELVIKTWKGSTEGKLSQPLFELRCSNNVVHVHSCADSCALLVNLLQYVMSTGDLHPPPRPPSPTEIAGQKLSESPASLPSCPPVETALINQRDLADALLDTERSLRELAQPSGGHLPQASPISVYLFPGERSGAPPPSPPVGGPAGSLGSCSEEKEDEREEEGDGDTLDSDEFCILDAPGLGIPPRDGEPVVTQLHPGPIVVRDGYFSRPIGSTDLLRAPAHFPVPSTRVVLREVSLVWHLYGGRDFGPHPGHRARTGLSGPRSSPSRCSGPNRPQNSWRTQGGSGRQHHVLMEIQLSKVSFQHEVYPAEPATGPAAPSQELEERPLSRQVFIVQELEVRDRLASSQINKFLYLHTSERMPRRAHSNMLTIKALHVAPTTNLGGPECCLRVSLMPLRLNVDQDALFFLKDFFTSLVAGINPVVPGETSAEARPETRAQPSSPLEGQAEGVETTGSQEAPGGGHSPSPPDQQPIYFREFRFTSEVPIWLDYHGKHVTMDQVGTFAGLLIGLAQLNCSELKLKRLCCRHGLLGVDKVLGYALNEWLQDIRKNQLPGLLGGVGPMHSVVQLFQGFRDLLWLPIEQYRKDGRLMRGLQRGAASFGSSTASAALELSNRLVQAIQATAETVYDILSPAAPVSRSLQDKRSARRLRRGQQPADLREGVAKAYDTVREGILDTAQTICDVASRGHEQKGLTGAVGGVIRQLPPTVVKPLILATEATSSLLGGMRNQIVPDAHKDHALKWRSDSAQD
# partner: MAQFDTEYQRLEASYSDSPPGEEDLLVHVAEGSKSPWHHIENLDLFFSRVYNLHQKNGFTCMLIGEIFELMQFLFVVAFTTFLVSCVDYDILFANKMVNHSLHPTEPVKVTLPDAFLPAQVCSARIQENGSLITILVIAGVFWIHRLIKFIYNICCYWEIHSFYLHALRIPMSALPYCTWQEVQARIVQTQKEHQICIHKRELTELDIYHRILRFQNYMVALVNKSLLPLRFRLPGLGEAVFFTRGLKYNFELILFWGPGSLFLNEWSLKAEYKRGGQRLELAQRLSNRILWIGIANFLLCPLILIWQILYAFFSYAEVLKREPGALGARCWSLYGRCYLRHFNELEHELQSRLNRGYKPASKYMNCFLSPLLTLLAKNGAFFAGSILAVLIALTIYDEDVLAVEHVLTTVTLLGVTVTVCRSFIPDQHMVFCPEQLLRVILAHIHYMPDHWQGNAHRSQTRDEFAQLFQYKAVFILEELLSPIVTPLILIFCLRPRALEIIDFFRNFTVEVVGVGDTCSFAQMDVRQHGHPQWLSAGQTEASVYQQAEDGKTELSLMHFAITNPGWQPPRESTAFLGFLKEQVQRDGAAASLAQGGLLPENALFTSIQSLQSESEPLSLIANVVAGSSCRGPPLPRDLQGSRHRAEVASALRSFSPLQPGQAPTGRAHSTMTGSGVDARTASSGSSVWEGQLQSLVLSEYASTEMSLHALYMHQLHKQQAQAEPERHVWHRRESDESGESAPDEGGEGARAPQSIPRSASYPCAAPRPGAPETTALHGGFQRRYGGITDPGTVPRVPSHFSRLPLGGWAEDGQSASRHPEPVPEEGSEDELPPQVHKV
# B2: Autophagy-related protein 2 homolog A (Homo sapiens), Q2TAZ0 (parent)
# chain: B1 chain
# partner: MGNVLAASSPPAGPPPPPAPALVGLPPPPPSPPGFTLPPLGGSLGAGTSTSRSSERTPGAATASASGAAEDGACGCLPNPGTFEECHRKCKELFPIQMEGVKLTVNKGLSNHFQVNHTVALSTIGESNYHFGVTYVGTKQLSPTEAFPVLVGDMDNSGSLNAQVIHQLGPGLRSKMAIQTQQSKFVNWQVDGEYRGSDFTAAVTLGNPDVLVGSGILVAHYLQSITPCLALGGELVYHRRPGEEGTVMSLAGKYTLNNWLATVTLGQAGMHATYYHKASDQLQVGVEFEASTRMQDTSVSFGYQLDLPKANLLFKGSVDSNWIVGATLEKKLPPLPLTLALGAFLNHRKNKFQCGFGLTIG
# Variants of: B1
# Settings: with atg9a_human ATG9A
row,effect of a mutation on the interaction,Variant
1,disrupting interaction strength,Y1395A;F1396A;S1397A

# Variants of: B2
# Settings: with tom40_human TOMM40, O96008
row,effect of a mutation on the interaction,Variant
1,disrupting interaction strength,L1798A;L1800A;L1804A
2,decreasing interaction strength,R1777A;R1780A;R1784A
3,decreasing interaction strength,R1777A;R1780A;R1784A;L1798A;L1800A;L1804A
